Data: the nanobody polyreactivity screen of Harvey et al. (2022)

Assay: yeast display, Sf9 membrane polyspecificity reagent, FACS + sequencing; frameworks hold sequencing errors
In short: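 Sorting gates, low and high (top ~1%), were placed on anti-HA fluorescence to track expression and on streptavidin fluorescence to track reagent binding. A clone's polyreactivity label is taken from the gate it came out of. The reagent was 10% biotinylated, detergent-solubilized Sf9 membrane, applied for 1 hour at 4 °C to galactose-induced yeast display cells.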

Sequence	polyreactivity (PSR sort gate)
QVQLVESGGGLVQAGGSLRLSCAASGFIFDTYAMGWYRQAPGKERELVAAISWTGTDTYYADSVKGRFTISRDNAKNTVYLQMNSLKPEDTAVYYCAARSRYKYSPSGDYWGQGTQVTVSS	high polyreactivity
QVQLVESGGGLVQAGGSLRLSCAASGFIFDVYAMGWYRQAPGKERELVAAISVSSTNYADSVKGRFTISRDNAKNTVYLQMNSLKPEDTAVYYCAADTYTYFLASYLYGQYDYWGQGTQVTVSS	low polyreactivity
QVQLVESGGGLVQAGGSLRLSCAASGFIFDVYAMGWYRQAPGKERELVAAITSGDGTNYADSVKGRFTISRDNAKNTVYLQMNSLKPEDTAVYYCAADYGVTYRGIIFSYWGQGTQVTVSS	low polyreactivity
QVQLVESGGGLVQAGGSLRLSCAASGFIFDVYAMGWYRQAPGTERELVAAITSGDGTNYADSVKGRFTISRDNAKNTVYLQMNSLKPEETAVYYCAADDGVTYRGIIFSYWGQGTQVTVSS	low polyreactivity
QVQLVESGGGLVQAGGSLRLSCAASGFIFDWYAMGSYSQAPGKEREFVAAINWSGGSTYYADSVKGRFTISRDNAKNTVYLQMNSLKPEDTAVYYCAAYRPYSSSEGVYWGQGTQVTVSS	high polyreactivity
QVQLVESGGGLVQAGGSLRLSCAASGFIFDYNTMGWYRQEPGKERELVADISGGGGRTYYADSVKGRFTISRDNAKNTVYLQMNSLKPEDTAVYYCAALGYYHHAWWISYDYWGQGTQVTVSS	low polyreactivity
QVQLVESGGGLVQAGGSLRLSCAASGFIFDYYAMGWYRQAPGKEREFVAAITWDGGSTYYADSVKGRFTISRDNAKNTVYLQMNSLKPEDTAVYYRAAETWGEYGYWGQGTQVTVSS	low polyreactivity
QVQLVESGGGLVQAGGSLRLSCAASGFIFDYYAMGWYRQAPGKERELVAAITSRSGSTYYADSVKGRFTISRDNAKNTVYLQMNSLKPEDTAVYYCAARRARRDPVGYVYAKYGYWGQGTQVTVSS	high polyreactivity
QVQLVESGGGLVQAGGSLRLSCAASGFIFEGYAMGWYRQAPGKERELVATISRSGGRTNYADSVKGRFTISRDNAKNTVYLQMNSLKPEDTAVYYCAAAYLRRVAYDYWGQGTQVTVSS	high polyreactivity
QVQLVESGGGLVQAGGSLRLSCAASGFIFETNAMGWYRQAPGKERELVAAISSRGGSTYYADSVKGRFTISRDNAKNTVYLQMNSLKPEDTAVYYCAAKLVVSYGQEYDYWGQGTQVTVSS	low polyreactivity
QVQLVESGGGLVQAGGSLRLSCAASGFIFFTYAMGWYRQAPGKERELVADISSRGGSTYYADSVKGRFTISRDNAKNTVYLQMNSLKPEDTAVYYCARTRFWLRYRLFDYWGQGTQVTVSS	low polyreactivity
QVQLVESGGGLVQAGGSLRLSCAASGFIFFTYAMGWYRQAPGKVRELVAAITSRGGRTYYADSVKGRFTISRDNAKNTVYLQMNILKPEDTAVYYCAVDPVRRYRYDYWGQGTQVTVSS	low polyreactivity
QVQLVESGGGLVQAGGSLRLSCAASGFIFFYNAMGWYRQAPGKERELVAAISARGGSTYYADSVKGRFTISRDNAKNTVYLQMNSLKPEDTAVYYCNAVFPWPYVSRSIYWYYWGQGTQVTVSS	high polyreactivity
QVQLVESGGGLVQAGGSLRLSCAASGFIFGANAMGWYRPAPGKERELVASINGSGGSTFYADSVKGRFTISRDNAKNTVYLQMNSLNPEDTAVYYCAAPCFCWFTTGGYYYWGQGTQVTVSS	low polyreactivity
QVQLVESGGGLVQAGGSLRLSCAASGFIFGAYAMGWYRQAPGKERELVAALSSRGGNTYYADSVKGRFTISRDNAKNTVYLQMNSLKPEDTAVYYCNAVGYARYLYVPPPYDYWGQGTQVTVSS	high polyreactivity
QVQLVESGGGLVQAGGSLRLSCAASGFIFGFNAMGWYRQAPGKERELVAVISARGGRTYYADSVKGRFTISRDNAKNTVYLQMNSLKPEDTAVYYCAADDFFRYFFTHWVGDDYWGQGTQVTVSS	low polyreactivity
QVQLVESGGGLVQAGGSLRLSCAASGFIFGFYAMGWYRQAPGKERELVAAISGGGGRTNYADSVKGRFTISRDNAKNTVYLQMNSLKPEDTAVYYCARSPSYYSYTFGRQAYGNDYWGQGTQVTVSS	high polyreactivity
